± gives the uncertainty stated by the source.
Test: self-splicing fitness, log relative to wild type (ln ratio); higher = more splicing; Tetrahymena group I intron in knt gene, E. coli kanamycin selection, DiMSum; sequences stand for … in CUCUCU…GGAGGGAAAAGUUAUCAGGCAUGCACCUGGUAGCUAGUCUUUAAACCAAUAGAUUGCAUCGGUUUAAAAGGCAAGACCGUCAAAUUGCGGGAAAGGGGUCAACAGCCGUUCAGUACCAAGUCUCAGGGGAAACUUUGAGAUGGCCUUGCAAAGGGUAUGGUAAUAAGCUGACGGACAUGGUCCUAACCACGCAGCCAAGUCCUAAGUCAACAGAUCUUCUGUUGAUAUGGAUGCAGUUCACAGACUAAAUGUCGGUCGGGGAAGAUGUAUUCUUCUCAUAAGAUAUAGUCGGACCUCUCCUUAAUGGGAGCUAGCGGAUGAAGUGAUGCAACACUGGAGCCGCUGGGAACUAAUUUGUAUGCGAAAGUAUAUUGAUUAGUUUUGGAGUACUCGUGGUCG
How it was run: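 Library with all eight P1ex-region intron nucleotides randomised, intron inside the knt kanamycin-resistance gene on pET-22b(+), in E. coli BL21(DE3). Cells grew overnight at 37°C or 30°C on LB agar with or without 25 μg/mL kanamycin (plus 100 μg/mL carbenicillin, 50 μM IPTG, 0.2% rhamnose), in six replicate transformations. Pooled colonies were amplicon-sequenced on Illumina HiSeq 2500. DiMSum fitness is the error-weighted combination of wild-type-normalised replicate fold changes, kanamycin versus none.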

Row | Sequence | self-splicing fitness (ln) (30 °C) | self-splicing fitness (ln) (37 °C)
1 | CGGCAGCAAUAUUACGCUGA | -3.18 ± 0.17 | -2.17 ± 0.23
2 | CGGCAGCAAUAUUACGCUUU | -2.9 ± 0.2 | -1.62 ± 0.13
3 | CGGCAGCAAUAUUACGGAAC | -2.88 ± 0.16 | -3.76 ± 0.33
4 | CGGCAGCAAUAUUACGGAAU | -5.35 ± 0.41 | -1.42 ± 0.13
5 | CGGCAGCAAUAUUACGGUAA | -2.56 ± 0.13 | -2.33 ± 0.13
6 | CGGCAGCAAUAUUACGUAAA | -2.71 ± 0.12 | -1.84 ± 0.12
7 | CGGCAGCAAUAUUACGUACG | -3.05 ± 0.17 | -1.31 ± 0.16
8 | CGGCAGCAAUAUUACGUCCA | -0.34 ± 0.1 | -0.521 ± 0.14
9 | CGGCAGCAAUAUUACGUGAA | -2.25 ± 0.11 | -1.65 ± 0.15
10 | CGGCAGCAAUAUUACGUGAU | -3.11 ± 0.12 | -1.57 ± 0.13
11 | CGGCAGCAAUAUUACGUGGC | -3.19 ± 0.33 | -2.02 ± 0.23
12 | CGGCAGCAAUAUUACGUUCG | – | -1.23 ± 0.16
13 | CGGGAGCAAUAUUACGAAUC | – | -0.75 ± 0.23
14 | CGGGAGCAAUAUUACGACGU | -3.47 ± 0.33 | -1.16 ± 0.18
15 | CGGGAGCAAUAUUACGAGCU | -3.18 ± 0.41 | -1.89 ± 0.38
16 | CGGGAGCAAUAUUACGAGGA | -4.2 ± 0.39 | -2.53 ± 0.28
17 | CGGGAGCAAUAUUACGAGGU | -4.39 ± 0.39 | -2.18 ± 0.31
18 | CGGGAGCAAUAUUACGAUCA | – | -1.75 ± 0.43
19 | CGGGAGCAAUAUUACGCACG | -1.33 ± 0.31 | –
20 | CGGGAGCAAUAUUACGCUAA | -2.62 ± 0.43 | –
21 | CGGGAGCAAUAUUACGCUAG | -2.57 ± 0.27 | -1.27 ± 0.35
22 | CGGGAGCAAUAUUACGCUCG | – | -0.772 ± 0.32
23 | CGGGAGCAAUAUUACGGAUG | -3.1 ± 0.23 | -2.75 ± 0.26
24 | CGGGAGCAAUAUUACGGGCC | -1.81 ± 0.21 | –
25 | CGGGAGCAAUAUUACGUCGG | -2.52 ± 0.14 | -1.66 ± 0.15
26 | CGGGAGCAAUAUUACGUCUA | -1.89 ± 0.21 | -1.82 ± 0.21

Row | Sequence | self-splicing fitness (ln) (30 °C) | self-splicing fitness (ln) (37 °C)
27 | CGGGAGCAAUAUUACGUGGU | -3.52 ± 0.2 | -2.46 ± 0.19
28 | CGGUAGCAAUAUUACGAAAU | -2.91 ± 0.21 | -3.07 ± 0.37
29 | CGGUAGCAAUAUUACGACAA | -2 ± 0.21 | 0.305 ± 0.1
30 | CGGUAGCAAUAUUACGACCC | 0.488 ± 0.48 | -1.29 ± 0.44
31 | CGGUAGCAAUAUUACGACUU | -0.479 ± 0.094 | 0.365 ± 0.11
32 | CGGUAGCAAUAUUACGAGUA | – | -1.32 ± 0.4
33 | CGGUAGCAAUAUUACGAUGG | -0.774 ± 0.1 | 0.646 ± 0.14
34 | CGGUAGCAAUAUUACGCACC | – | -0.162 ± 0.39
35 | CGGUAGCAAUAUUACGCAGU | -4.22 ± 0.22 | -2.63 ± 0.16
36 | CGGUAGCAAUAUUACGCCCU | 0.24 ± 0.19 | 0.785 ± 0.29
37 | CGGUAGCAAUAUUACGCUUG | -2.07 ± 0.14 | -0.206 ± 0.14
38 | CGGUAGCAAUAUUACGGUGU | -3.24 ± 0.17 | -2.04 ± 0.17
39 | CGGUAGCAAUAUUACGUACA | -1.51 ± 0.14 | -0.643 ± 0.19
40 | CGGUAGCAAUAUUACGUAGG | -0.647 ± 0.051 | 0.647 ± 0.08
41 | CGGUAGCAAUAUUACGUCGA | -2.09 ± 0.23 | -0.214 ± 0.16
42 | CGGUAGCAAUAUUACGUGCG | -1.41 ± 0.12 | -0.87 ± 0.12
43 | CGGUAGCAAUAUUACGUUAG | 0.11 ± 0.074 | 0.0358 ± 0.097
44 | CGUAAGCAAUAUUACGACGU | -2.15 ± 0.15 | -0.981 ± 0.15
45 | CGUAAGCAAUAUUACGAGCC | – | -1.87 ± 0.22
46 | CGUAAGCAAUAUUACGAGCG | -1.02 ± 0.11 | -2.67 ± 0.24
47 | CGUAAGCAAUAUUACGAGGC | -3.73 ± 0.32 | -1.99 ± 0.29
48 | CGUAAGCAAUAUUACGAUAU | -2.95 ± 0.14 | -2.77 ± 0.2
49 | CGUAAGCAAUAUUACGAUCA | -1.17 ± 0.11 | -0.755 ± 0.12
50 | CGUAAGCAAUAUUACGAUGA | -3.44 ± 0.34 | –
51 | CGUAAGCAAUAUUACGCACU | -2.27 ± 0.24 | -1.6 ± 0.18
